Source: the supplement of paper PMC10065799, “High-throughput profiling of sequence recognition by tyrosine kinases and SH2 domains using bacterial peptide display” (eLife, 2023)

What was measured:
Grb2 SH2 = Grb2 SH2 (UniProt P62993); experiment: SH2 binding enrichment of the phosphorylated peptide, bacterial display (enrichment ratio); higher = better substrate or ligand; peptides without Tyr show the background
c-Src SH2 = experiment: as above
SHP2-C SH2 = experiment: as above
EPHB2 = EPHB2 (UniProt P29323); experiment: phosphorylation enrichment, bacterial display (enrichment ratio); higher = better substrate or ligand; peptides without Tyr show the background
Chain of EPHB2 (P29323 whole entry, looked up): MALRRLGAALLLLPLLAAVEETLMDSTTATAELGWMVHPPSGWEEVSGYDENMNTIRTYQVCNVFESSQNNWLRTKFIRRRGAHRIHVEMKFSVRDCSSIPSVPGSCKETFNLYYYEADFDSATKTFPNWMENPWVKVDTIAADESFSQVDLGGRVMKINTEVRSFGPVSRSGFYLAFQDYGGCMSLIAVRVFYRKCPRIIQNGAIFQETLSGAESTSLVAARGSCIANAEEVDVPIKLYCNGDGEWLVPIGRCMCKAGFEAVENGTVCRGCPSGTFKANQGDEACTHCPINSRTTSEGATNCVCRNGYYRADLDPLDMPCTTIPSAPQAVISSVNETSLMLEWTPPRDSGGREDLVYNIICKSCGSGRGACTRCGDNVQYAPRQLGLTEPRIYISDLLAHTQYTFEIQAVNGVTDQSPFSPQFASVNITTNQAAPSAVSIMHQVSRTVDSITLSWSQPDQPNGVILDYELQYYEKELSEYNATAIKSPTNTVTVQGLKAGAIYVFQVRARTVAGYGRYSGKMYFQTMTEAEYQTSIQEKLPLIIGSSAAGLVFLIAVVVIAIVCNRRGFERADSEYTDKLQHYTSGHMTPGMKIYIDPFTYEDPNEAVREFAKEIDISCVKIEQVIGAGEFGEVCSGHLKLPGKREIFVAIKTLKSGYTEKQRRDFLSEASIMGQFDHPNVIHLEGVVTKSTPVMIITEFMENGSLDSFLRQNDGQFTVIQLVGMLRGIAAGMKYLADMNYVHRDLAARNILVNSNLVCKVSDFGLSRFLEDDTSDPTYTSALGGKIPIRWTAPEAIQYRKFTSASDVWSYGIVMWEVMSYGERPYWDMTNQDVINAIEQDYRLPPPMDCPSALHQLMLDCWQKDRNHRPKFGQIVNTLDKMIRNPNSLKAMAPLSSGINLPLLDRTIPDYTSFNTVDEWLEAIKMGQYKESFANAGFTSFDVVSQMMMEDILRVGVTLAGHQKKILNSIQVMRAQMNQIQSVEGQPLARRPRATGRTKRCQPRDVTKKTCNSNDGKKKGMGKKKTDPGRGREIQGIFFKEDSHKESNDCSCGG

EPHB1 = EPHB1 (UniProt P54762); experiment: as above
FGFR3 = FGFR3 (UniProt P22607); experiment: as above
MERTK = MERTK (UniProt Q12866); experiment: as above
c-Src = experiment: as above
c-Abl (mouse) = experiment: as above
Hck = Hck (UniProt P08631); experiment: as above
Chain of Hck (P08631 whole entry, looked up): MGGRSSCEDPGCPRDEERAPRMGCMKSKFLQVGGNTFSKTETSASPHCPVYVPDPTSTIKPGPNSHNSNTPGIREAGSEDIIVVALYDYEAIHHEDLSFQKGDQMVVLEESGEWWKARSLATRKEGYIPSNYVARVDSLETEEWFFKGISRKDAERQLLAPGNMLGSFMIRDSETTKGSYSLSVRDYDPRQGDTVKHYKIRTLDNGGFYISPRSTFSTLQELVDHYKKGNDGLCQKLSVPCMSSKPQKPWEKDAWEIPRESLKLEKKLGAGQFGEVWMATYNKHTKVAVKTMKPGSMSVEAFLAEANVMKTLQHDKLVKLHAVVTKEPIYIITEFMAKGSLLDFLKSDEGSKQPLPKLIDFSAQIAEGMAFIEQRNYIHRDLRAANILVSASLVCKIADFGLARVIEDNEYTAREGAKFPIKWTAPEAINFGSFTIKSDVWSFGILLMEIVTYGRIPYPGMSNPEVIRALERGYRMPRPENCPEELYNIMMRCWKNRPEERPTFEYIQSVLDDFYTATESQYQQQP

Jak2 = Jak2 (UniProt O60674); experiment: as above
Chain of Jak2 (O60674 whole entry, looked up): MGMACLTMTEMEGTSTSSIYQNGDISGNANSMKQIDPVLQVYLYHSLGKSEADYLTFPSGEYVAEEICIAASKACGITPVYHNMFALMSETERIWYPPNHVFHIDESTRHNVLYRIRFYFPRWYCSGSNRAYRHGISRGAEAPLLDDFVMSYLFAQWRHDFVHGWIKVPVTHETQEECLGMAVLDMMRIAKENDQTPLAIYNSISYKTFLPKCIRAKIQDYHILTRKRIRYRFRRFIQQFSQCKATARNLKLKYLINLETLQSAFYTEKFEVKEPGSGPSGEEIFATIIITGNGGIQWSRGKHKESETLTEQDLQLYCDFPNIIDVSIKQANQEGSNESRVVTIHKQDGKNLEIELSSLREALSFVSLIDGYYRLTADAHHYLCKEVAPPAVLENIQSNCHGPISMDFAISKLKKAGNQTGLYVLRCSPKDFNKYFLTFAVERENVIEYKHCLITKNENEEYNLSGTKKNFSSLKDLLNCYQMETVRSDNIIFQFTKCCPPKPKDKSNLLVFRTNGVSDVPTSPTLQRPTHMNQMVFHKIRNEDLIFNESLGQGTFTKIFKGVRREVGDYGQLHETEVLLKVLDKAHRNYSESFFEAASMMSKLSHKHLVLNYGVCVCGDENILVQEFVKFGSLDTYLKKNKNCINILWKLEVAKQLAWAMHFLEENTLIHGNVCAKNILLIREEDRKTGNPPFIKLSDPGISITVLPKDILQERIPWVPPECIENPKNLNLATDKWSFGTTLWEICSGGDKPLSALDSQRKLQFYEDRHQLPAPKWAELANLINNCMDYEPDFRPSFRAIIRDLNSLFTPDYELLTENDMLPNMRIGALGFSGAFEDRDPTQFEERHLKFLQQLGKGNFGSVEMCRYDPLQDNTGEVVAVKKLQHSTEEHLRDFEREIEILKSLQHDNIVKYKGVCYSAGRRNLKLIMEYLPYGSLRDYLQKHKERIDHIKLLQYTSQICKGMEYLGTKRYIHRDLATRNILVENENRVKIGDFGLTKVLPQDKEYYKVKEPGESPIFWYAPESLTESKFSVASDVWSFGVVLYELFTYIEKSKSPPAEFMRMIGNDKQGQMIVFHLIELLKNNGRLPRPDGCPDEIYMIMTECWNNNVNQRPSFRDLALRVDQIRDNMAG

Fes = Fes (UniProt P07332); experiment: as above
Chain of Fes (P07332 whole entry, looked up): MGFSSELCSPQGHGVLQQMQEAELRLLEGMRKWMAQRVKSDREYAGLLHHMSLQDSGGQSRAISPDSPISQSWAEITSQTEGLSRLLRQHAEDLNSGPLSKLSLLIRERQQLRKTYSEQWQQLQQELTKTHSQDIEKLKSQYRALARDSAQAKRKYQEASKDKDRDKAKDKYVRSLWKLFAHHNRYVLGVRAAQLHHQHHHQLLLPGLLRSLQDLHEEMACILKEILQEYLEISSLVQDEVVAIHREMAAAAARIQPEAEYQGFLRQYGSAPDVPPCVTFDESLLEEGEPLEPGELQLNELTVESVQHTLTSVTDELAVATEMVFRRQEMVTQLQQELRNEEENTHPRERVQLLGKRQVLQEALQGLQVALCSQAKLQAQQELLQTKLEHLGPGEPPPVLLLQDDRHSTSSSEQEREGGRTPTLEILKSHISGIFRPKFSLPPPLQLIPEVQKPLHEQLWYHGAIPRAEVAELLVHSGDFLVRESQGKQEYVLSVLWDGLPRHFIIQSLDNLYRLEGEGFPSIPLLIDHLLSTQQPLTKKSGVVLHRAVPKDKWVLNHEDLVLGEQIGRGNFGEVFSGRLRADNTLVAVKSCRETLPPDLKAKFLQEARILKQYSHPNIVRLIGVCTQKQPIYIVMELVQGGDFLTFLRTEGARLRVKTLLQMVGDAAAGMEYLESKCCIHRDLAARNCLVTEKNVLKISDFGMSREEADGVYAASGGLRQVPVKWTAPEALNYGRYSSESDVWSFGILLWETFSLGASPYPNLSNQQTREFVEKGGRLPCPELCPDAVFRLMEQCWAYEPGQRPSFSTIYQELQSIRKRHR

Fyn = Fyn (UniProt P06241); experiment: as above
Chain of Fyn (P06241 whole entry, looked up): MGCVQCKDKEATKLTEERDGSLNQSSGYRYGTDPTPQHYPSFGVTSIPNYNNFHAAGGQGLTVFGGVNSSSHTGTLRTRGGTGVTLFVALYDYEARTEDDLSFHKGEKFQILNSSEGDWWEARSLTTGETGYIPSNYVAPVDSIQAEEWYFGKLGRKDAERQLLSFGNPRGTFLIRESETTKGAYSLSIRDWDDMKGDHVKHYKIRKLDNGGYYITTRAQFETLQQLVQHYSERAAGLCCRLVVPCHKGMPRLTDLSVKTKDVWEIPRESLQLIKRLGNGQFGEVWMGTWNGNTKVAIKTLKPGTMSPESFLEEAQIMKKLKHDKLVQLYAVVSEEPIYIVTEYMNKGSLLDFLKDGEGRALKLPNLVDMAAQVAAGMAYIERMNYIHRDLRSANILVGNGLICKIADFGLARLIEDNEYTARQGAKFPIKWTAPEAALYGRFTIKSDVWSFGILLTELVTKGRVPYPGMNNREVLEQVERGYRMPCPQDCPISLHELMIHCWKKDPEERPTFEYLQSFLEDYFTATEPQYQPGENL

Fer (mouse) = experiment: as above
AncSZ = experiment: as above
FGFR1 = FGFR1 (UniProt P11362); experiment: as above
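Throughout, for SH2 binding enrichment of the phosphorylated peptide, bacterial display: peptide library displayed on the E. coli surface as eCPX fusions, selected cells deep-sequenced, score is each peptide's frequency after selection divided by its frequency in the input.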
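Throughout, for phosphorylation enrichment, bacterial display: 11-residue human phosphosite peptides and single-mutation variants displayed on the E. coli surface, counted by deep sequencing, each peptide's frequency after selection divided by its frequency in the unselected input library; frequency after pTyr selection over input frequency; kinase dosed for 20-30% of maximal phosphorylation in three min.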

Chain of Grb2 SH2 (P62993 whole entry, looked up): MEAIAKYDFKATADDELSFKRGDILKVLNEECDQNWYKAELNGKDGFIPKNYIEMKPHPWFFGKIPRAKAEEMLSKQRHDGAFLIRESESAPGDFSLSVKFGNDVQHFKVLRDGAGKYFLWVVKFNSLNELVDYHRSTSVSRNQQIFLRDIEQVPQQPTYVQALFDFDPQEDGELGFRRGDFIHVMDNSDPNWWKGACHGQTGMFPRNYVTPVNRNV

Row | Sequence | SH2 binding enrichment (Grb2 SH2) | SH2 binding enrichment (c-Src SH2) | SH2 binding enrichment (SHP2-C SH2) | phosphorylation enrichment (EPHB2) | phosphorylation enrichment (EPHB1) | phosphorylation enrichment (FGFR3) | phosphorylation enrichment (MERTK) | phosphorylation enrichment (c-Src) | phosphorylation enrichment (c-Abl (mouse)) | phosphorylation enrichment (Hck) | phosphorylation enrichment (Jak2) | phosphorylation enrichment (Fes) | phosphorylation enrichment (Fyn) | phosphorylation enrichment (Fer (mouse)) | phosphorylation enrichment (AncSZ) | phosphorylation enrichment (FGFR1)
1 | EEEFEYMNRRR [ERBB3_Y1199_D1194E_YF] | 1.37 | 0.649 | 0.671 | 0.532 | 0.693 | 0.767 | 0.724 | 0.608 | 0.808 | 0.569 | 1.19 | 1.24 | 0.515 | 0.408 | 1.59 | 0.554
2 | EEESCYILHSS [PATJ_Y783] | 0.944 | 0.744 | 0.79 | 0.625 | 0.637 | 0.853 | 0.484 | 0.819 | 0.892 | 0.57 | 1.31 | 1.35 | 0.659 | 0.926 | 1.63 | 0.621
3 | EFGEVYKGTLK [EPHA2_Y628_M631T] | 0.808 | 0.473 | 0.393 | 0.409 | 0.539 | 0.426 | 0.362 | 0.376 | 0.521 | 0.398 | 0.425 | 0.549 | 0.373 | 0.448 | 0.603 | 0.386
4 | EFISEYCGEII [EZH2_Y641] | 0.947 | 0.617 | 0.809 | 0.716 | 0.901 | 1.05 | 0.616 | 0.576 | 0.905 | 0.664 | 1.05 | 1.33 | 0.692 | 0.678 | 1.61 | 0.604
5 | EFLRNYFTDKA [DSG2_Y775] | 1.03 | 0.444 | 1.03 | 0.472 | 0.572 | 0.622 | 0.567 | 0.528 | 0.764 | 0.414 | 0.962 | 1.08 | 0.48 | 0.573 | 1.09 | 0.569
6 | EFNINYNNEPP [THG1L_Y228_L232P] | 0.742 | 0.453 | 0.528 | 0.566 | 0.642 | 0.742 | 0.46 | 0.529 | 0.852 | 0.583 | 0.989 | 1.3 | 0.626 | 0.6 | 1.23 | 0.681
7 | EFNLMYHGTKE [IRF6_Y97_D98H] | 0.827 | 0.656 | 0.784 | 0.645 | 0.631 | 0.579 | 0.442 | 0.545 | 0.593 | 0.455 | 0.744 | 0.94 | 0.463 | 0.451 | 0.923 | 0.489
8 | EGNERYEGFCV [GRIA3_Y451_YF] | 0.74 | 1.52 | 0.66 | 0.515 | 0.662 | 0.697 | 0.431 | 0.479 | 0.783 | 0.554 | 1.01 | 1.15 | 0.58 | 0.55 | 1.12 | 0.649
9 | EGVPLYESATT [DCC_Y809] | 0.731 | 0.57 | 0.489 | 4.87 | 4.19 | 0.775 | 0.638 | 1.14 | 0.831 | 2.05 | 0.988 | 1.07 | 1.09 | 7.75 | 1.12 | 0.475
10 | EHTTLYSNNST [KANSL1_Y223] | 0.846 | 0.651 | 0.863 | 0.53 | 0.387 | 0.431 | 0.386 | 0.455 | 0.487 | 0.568 | 0.575 | 0.65 | 0.423 | 0.602 | 0.632 | 0.356
11 | EIRTQYEAMAS [GFAP_Y242] | 0.702 | 2.62 | 1.14 | 0.577 | 0.45 | 0.523 | 0.415 | 0.472 | 0.676 | 0.534 | 0.682 | 0.778 | 0.55 | 0.483 | 0.691 | 0.638
12 | EKFVPYYDLFM [IPO5_Y530] | 1.72 | 3.84 | 1.46 | 6.87 | 4.82 | 5.89 | 7.26 | 4.22 | 0.787 | 3.27 | 1.47 | 1.18 | 3.05 | 3.71 | 1.2 | 6.89
13 | EKQARYEIVEE [CDH5_Y223_V227E] | 0.897 | 18.8 | 0.921 | 0.565 | 0.582 | 0.798 | 0.644 | 0.521 | 0.749 | 0.667 | 1.09 | 1.24 | 0.542 | 0.56 | 1.2 | 0.506
14 | ELAINYQEQAS [SLC9A9_Y591] | 0.905 | 0.536 | 0.556 | 0.469 | 0.526 | 0.674 | 0.416 | 0.403 | 0.504 | 0.643 | 0.832 | 0.869 | 0.539 | 0.524 | 0.923 | 0.522
15 | ELCSEYHKSRK [SPINK5_Y440_R441H] | 0.824 | 0.484 | 0.679 | 0.412 | 0.405 | 0.53 | 0.532 | 0.633 | 0.999 | 0.442 | 0.945 | 1.02 | 0.487 | 0.507 | 0.73 | 0.513
16 | ELTSVYDSRAR [SENP1_Y349] | 0.761 | 0.397 | 0.395 | 0.507 | 0.35 | 0.574 | 0.52 | 1.03 | 0.557 | 1.62 | 0.592 | 0.624 | 0.697 | 0.432 | 0.585 | 0.491
